Biological target: GST-Skp1 (Homo sapiens (Human), UniProt P63208)
Assay: GST pull-down, Western blot

GST-Skp1, sequence (P63208 whole entry): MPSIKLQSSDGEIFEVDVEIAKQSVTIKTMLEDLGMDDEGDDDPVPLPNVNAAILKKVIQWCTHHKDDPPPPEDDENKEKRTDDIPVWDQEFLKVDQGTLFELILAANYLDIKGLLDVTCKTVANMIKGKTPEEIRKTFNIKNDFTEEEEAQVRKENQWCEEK

binding result: no binding
B1: Recombinant human MAGE-C2 protein (protein)
chain: MPPVPGVPFRNVDNDSPTSVELEDWVDAQHPTDEEEEEASSASSTLYLVFSPSSFSTSSSLILGGPEEEEVPSGVIPNLTESIPSSPPQGPPQGPSQSPLSSCCSSFSWSSFSEESSSQKGEDTGTCQGLPDSESSFTYTLDEKVAELVEFLLLKYEAEEPVTEAEMLMIVIKYKDYFPVILKRAREFMELLFGLALIEVGPDHFCVFANTVGLTDEGSDDEGMPENSLLIIILSVIFIKGNCASEEVIWEVLNAVGVYAGREHFVYGEPRELLTKVWVQGHYLEYREVPHSSPPYYEFLWGPRAHSESIKKKVLEFLAKLNNTVPSSFPSWYKDALKDVEERVQATIDTADDATVMASESLSVMSSNVSFSE
